{"source": "patent US20080171347A1", "biological_target": "mouse synaptosomes (synaptosome preparation carrying the BoNT/A acceptor complex)"}
{"substance": "active botulinum neurotoxin type A (BoNT/A) (from UniProt P0DPI1 2-1296)", "values": [{"measurement": "percent inhibition (maximum at plateau)", "value": 78, "unit": "%"}]}
